Reference: patent publication US20240148828A1 (published 2024)

Target: T1, CD19 expressed on cells (Daudi, Raji, K562-CD19) (human, UniProt P15391 20-556)
T1 chain: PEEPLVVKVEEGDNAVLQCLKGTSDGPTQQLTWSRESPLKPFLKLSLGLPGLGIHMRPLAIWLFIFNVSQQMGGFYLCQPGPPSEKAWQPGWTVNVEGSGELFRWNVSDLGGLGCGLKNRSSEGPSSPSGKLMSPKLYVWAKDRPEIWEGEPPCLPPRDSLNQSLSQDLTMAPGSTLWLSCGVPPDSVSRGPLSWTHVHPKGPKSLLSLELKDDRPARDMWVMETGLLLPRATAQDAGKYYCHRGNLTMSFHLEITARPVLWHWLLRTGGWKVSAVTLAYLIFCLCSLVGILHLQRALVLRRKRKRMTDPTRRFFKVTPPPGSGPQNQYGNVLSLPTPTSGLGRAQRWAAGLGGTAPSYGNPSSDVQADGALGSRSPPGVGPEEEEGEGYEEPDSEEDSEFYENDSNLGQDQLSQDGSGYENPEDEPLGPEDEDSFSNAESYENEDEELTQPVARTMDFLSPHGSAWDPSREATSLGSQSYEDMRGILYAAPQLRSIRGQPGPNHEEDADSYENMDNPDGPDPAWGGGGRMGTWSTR
Experiment: flow cytometry cell binding

B1: BTN2A1/3A1-Fc-CD19scFv heterodimeric protein (Fc fusion)
chain 1: QFIVVGPTDPILATVGENTTLRCHLSPEKNAEDMEVRWFRSQFSPAVFVYKGGRERTEEQMEEYRGRTTFVSKDISRGSVALVIHNITAQENGTYRCYFQEGRSYDEAILHLVVAGLGSKPLISMRGHEDGGIRLECISRGWYPKPLTVWRDPYGGVAPALKEVSMPDADGLFMVTTAVIIRDKSVRNMSCSINNTLLGQKKESVIFIPESFMPSVSPCAGSGSRKGGKRGSKYGPPCPPCPAPEFLGGPSVFLFPPKPKDQLMISRTPEVTCVVVDVSQEDPEVQFNWYVDGVEVHNAKTKPREEQFNSTYRVVSVLTVLHQDWLSGKEYKCKVSSKGLPSSIEKTISNATGQPREPQVYTLPPSQEEMTKNQVSLTCLVKGFYPSDIAVEWESNGQPENNYKTTPPVLDSDGSFFLYSRLTVDKSRWQEGNVFSCSVLHEALHNHYTQKSLSLSLGKDEGGEDGSDIQMTQTTSSLSASLGDRVTISCRASQDISKYLNWYQQKPDGTVKLLIYHTSRLHSGVPSRFSGSGSGTDYSLTISNLEQEDIATYFCQQGNTLPYTFGGGTKLEITGGGSGGGSGGGSEVKLQESGPGLVAPSQSLSVTCTVSGVSLPDYGVSWIRQPPRKGLEWLGVIWGSETTYYNSALKSRLTIIKDNSKSQVFLKMNSLQTDDTAIYYCAKHYYYGGSYAMDYWGQGTSVTVSS
chain 2: not shown
- EC50: 5 nM
